Test results as given in patent US20230348603A1.

Biological target: Mouse VSIG4-His (mouse)
Test: ELISA, Fab P.E. 1:5 on coated antigen

Sequence of Mouse VSIG4-His (mouse) (chain, as listed by the source limits assumed): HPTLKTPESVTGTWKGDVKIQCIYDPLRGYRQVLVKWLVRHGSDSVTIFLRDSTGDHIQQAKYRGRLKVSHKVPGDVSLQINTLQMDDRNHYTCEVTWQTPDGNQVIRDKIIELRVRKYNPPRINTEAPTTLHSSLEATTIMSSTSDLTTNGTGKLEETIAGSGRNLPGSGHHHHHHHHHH

| Binder | ELISA OD450 [OD450] |
| --- | --- |
| 13H11 mouse Fab (periplasmic extract) (Fab, V domains shown) VH: QIQLVQSGPELKKPGETVKISCKASGYTFENFGMNWVKQAPGKGLKWMGWINTYTGEATYADDFKGRFAFSLETSASTAYLQINNLKNEDTATYFCARDGGFRHFDVWGAGTTVTVSS VL: ETTVTQSPASLSVATGEKVTIRCITSTDIDDDMNWYQQKPGEPPKLLISEGNTLRPGVPSRFSSSGYGTDFVFTIENMLSEDVADYYCLQSDNLPLTFGAGTKLELK | 0.057 |
| 14D12 mouse Fab (periplasmic extract) (Fab, V domains shown) VH: QIQLVQSGPELKKPGETVKISCKASGYTFTNYGMNWVKQTPGKGLKWMGLINTYTGEPTYADDFKGRFAFSLETSASTAYLQINNLKNEDMATYFCARERIYGYLHYFDYWGQGTTLTVSS VL: DVVMTQTPASLAVSLGQRATISCKASQSVDYDGDSYMNWYQQKPGQPPKLLIYAASNLESGIPARFSGSGSGTDFTLNIHPVEEEDAATYYCQQSNEDPRTFGGGTKLEIK | 0.054 |
| 15C03 mouse Fab (periplasmic extract) (Fab, V domains shown) VH: EVKLLESGPGLVKPSQSLSLTCTVTGYSITSDYAWNWIRQFPGNKLEWMGYISYSGSTRYNPSLKSRISITRDTSNNQFFLQLNSVTTEDTATYYCARSGYAAMDYWGQGTSVTVSS VL: ENVLTQSPAIMSASPGEKVTMTCRASSSVSSSYLHWYQQKSGASPKLWIYSTSNLASGVPARFSGSGSGTSYSLTISSVEAEDAATYYCQQYSGYPLTFGSGTKLEIK | 0.065 |
| 16E10 mouse Fab (periplasmic extract) (Fab, V domains shown) VH: QVQLQQSGAELVRPGTSVKISCKASGYTFTNYWLGWVKQRPGHGLEWIGDIYPGGGYTNYNEKFKGKATLTADTSSSTAYMQLSSLTSEDSAVYFCAKFYYYGSSYYFDSWGQGTTLTVSS VL: DIVLTQSPSSLSVSAGEKVTLSCKSSQSLLNSGNQENYLAWYQQKPGQPPKLLIYGASTRESGVPDRFTGSGSGTDFTLTISSVQAEDLAVYYCQNDHSYPLTFGAGTKLELK | 0.058 |
| 16E03 mouse Fab (periplasmic extract) (Fab, V domains shown) VH: QVQLQQSGAELARPGASVKMSCKASGYTFTSYTMHWIKQRPGQGLEWIGYINPSSGHTYYNQKFKDKATLTPDKSSSTAYMQLTSLTSEDSAVYYCARRIPTAYAMDYWGQGTSVTVSS VL: EIQMTQSHKFMSTSVGDRVSITCKASQDVGTAVAWYQQKPGQSPKLLIYWASTRHTGVPDRFTGSGSGTDFTLTISNVQSEDLADYFCQQYSSYPLTFGAGTKLELK | 0.057 |
| 14C05 mouse Fab (periplasmic extract) (Fab, V domains shown) VH: EVMLVESGPELKKPGETVKISCKASGYTFTNYGMNWVKQAPGKGLKWMGSINTYTGEATYADDFKGRFAFSLETSANTAYLQIDNLKNEDTATYFCARGDYYGRGTWFAYWGQGTLVTVSA VL: ETTVTQSHKFMSTSVGDRVSITCKASQDVSTAVAWYQQKPGQSPKLLIYSASYRYPGVPDRFTGSGSGTDFTFTISSVQAEDLAVYYCQQDYSSPWTFGGGTKLEIK | 0.059 |
| 12A12 mouse Fab (periplasmic extract) (Fab, V domains shown) VH: QVQMKQSGAELAKPGASVKMSCKASGYTFTNYWMHWVKQRPGQGLEWIGYINPSTGYTDYNQNFKDRATLTADKSSSTAYMQLSSLTSEDSAVYYCIRGSDYYGRDYWGQGTTLTVSS VL: DIQMTQTTSSLSASLGDRVTISCRASQDISNYLNWYQQKPDGTLKLLIYYTSRLHSGVPSRFSGSGSGTDYSLTISNLEQEDIATYFCRQGNTLPWTFGGGTKLEIK | 0.063 |
| 12A08 mouse Fab (periplasmic extract) (Fab, V domains shown) VH: EVMLVESGGGLVKPGGSLKLSCAASGFTFDDFYMYWVRQTPEKRLEWVASISDGGTYTYYPDSVKGRFTISRDNAKNTLYLQLSSLKSEDTAMYYCARGVDKYYYAMDYWGQGTSVTVSS VL: QILLTQSPAIMSASPGEKVTITCSASSSVSYMHWFQQKPGTSPKLWIYSTSNLASGVPARFSGSGSGTSYSLTISRMEAEDAATYYCQQRSSYPLTFGAGTKLELK | 0.057 |
